{"source": "patent US20250222146A1", "about": "“Radiopharmaceuticals Targeting Somatostatin Receptor 2 and Uses Thereof” (RayzeBio, Inc., priority 2023, published 2025)", "target": "T1, somatostatin receptor type 2 (SSTR2) (UniProt P30874 1-369, limits assumed)", "T1 construct": "also called SSTR protein", "T1 sequence (P30874 whole entry)": "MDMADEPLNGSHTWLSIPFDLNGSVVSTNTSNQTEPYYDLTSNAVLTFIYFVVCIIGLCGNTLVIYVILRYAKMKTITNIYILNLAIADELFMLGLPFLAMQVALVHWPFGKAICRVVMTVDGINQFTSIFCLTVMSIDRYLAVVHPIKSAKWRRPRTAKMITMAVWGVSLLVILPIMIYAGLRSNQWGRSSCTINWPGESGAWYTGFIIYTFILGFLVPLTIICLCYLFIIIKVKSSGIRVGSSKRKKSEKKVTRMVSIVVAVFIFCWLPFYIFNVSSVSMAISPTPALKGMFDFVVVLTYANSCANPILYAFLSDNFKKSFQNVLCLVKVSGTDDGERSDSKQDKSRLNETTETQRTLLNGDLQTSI", "assay": "radioligand competition; Ki bin per legend", "data": [{"binder": "XYWKTF (cyclo[NMe-Hcy(COCH2-Dah-DOTA-Lu);Tyr;D-Trp;NMe-Lys;Thr;Phe])", "note": "[RB-0003453]", "values": [{"measurement": "Ki", "result": "< 1", "unit": "nM"}]}]}
